Laboratory results published in publication PMC10350235.

Target: endogenous cTn(I-C) dimer (cTnI with TnC) (human (endogenous in heart tissue)) (UniProt P19429)
Experiment: native MS; native top-down MS on a 12-T FTICR, nanoelectrospray by direct infusion, 200 mM ammonium acetate; the heterotrimer was enriched as a whole from heart tissue on NP-Pep, isolated and its subunits ejected by CAD (complex-up, complex-down)

Sequence of endogenous cTn(I-C) dimer (cTnI with TnC) (human (endogenous in heart tissue)) (P19429 whole entry, the tested form may be a part): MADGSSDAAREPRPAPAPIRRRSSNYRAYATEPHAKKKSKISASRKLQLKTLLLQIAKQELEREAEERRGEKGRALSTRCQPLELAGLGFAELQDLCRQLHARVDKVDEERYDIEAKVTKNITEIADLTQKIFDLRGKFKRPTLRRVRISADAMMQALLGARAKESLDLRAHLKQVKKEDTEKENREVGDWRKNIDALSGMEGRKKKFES

“endogenous cardiac troponin T (cTnT) (natural protein)” gave a stoichiometry N (cTnT:cTnI:TnC) of 1.
